{"source": "paper PMC10200060", "about": "“Inhibition of DAMP actions in the tumoral microenvironment using lactoferrin-glycyrrhizin conjugate for glioblastoma therapy” (Biomaterials Research, 2023)", "molecules": {"B1": {"name": "Lf-GL: lactoferrin-glycyrrhizin conjugate with ligation ratio Lf:GL 1:10, used in further experiments (conjugate, UniProt P24627 20-708, looked up)", "Lactotransferrin": "APRKNVRWCTISQPEWFKCRRWQWRMKKLGAPSITCVRRAFALECIRAIAEKKADAVTLDGGMVFEAGRDPYKLRPVAAEIYGTKESPQTHYYAVAVVKKGSNFQLDQLQGRKSCHTGLGRSAGWIIPMGILRPYLSWTESLEPLQGAVAKFFSASCVPCIDRQAYPNLCQLCKGEGENQCACSSREPYFGYSGAFKCLQDGAGDVAFVKETTVFENLPEKADRDQYELLCLNNSRAPVDAFKECHLAQVPSHAVVARSVDGKEDLIWKLLSKAQEKFGKNKSRSFQLFGSPPGQRDLLFKDSALGFLRIPSKVDSALYLGSRYLTTLKNLRETAEEVKARYTRVVWCAVGPEEQKKCQQWSQQSGQNVTCATASTTDDCIVLVLKGEADALNLDGGYIYTAGKCGLVPVLAENRKSSKHSSLDCVLRPTEGYLAVAVVKKANEGLTWNSLKDKKSCHTAVDRTAGWNIPMGLIVNQTGSCAFDEFFSQSCAPGADPKSRLCALCAGDDQGLDKCVPNSKEKYYGYTGAFRCLAEDVGDVAFVKNDTVWENTNGESTADWAKNLNREDFRLLCLDGTRKPVTEAQSCHLAVAPNHAVVSRSDRAAHVKQVLLHQQALFGKNGKNCPDKFCLFKSETKNLLFNDNTECLAKLGGRPTYEEYLGTEYVTAIANLKKCSTSPLLEACAFLTR", "modifications": "glycyrrhizin conjugate"}}, "key": {"U87MG": {"tested_on": "U87MG", "experiment": "Annexin V/PI apoptosis staining in U87MG", "assay_type": "cell-based, human", "details": "GL equivalent 50 µM, 24 h (control 1.40%)", "experimental": "Fig. S10. Non-apoptotic U87MG growth inhibition of Lf-GL. Annexin V-DY-634 / PI apoptosis staining to detect the apoptosis and necrosis in the Control, GL, Lf, and Lf-GL treated group at all GL equivalent concentration of 50 µM for 24 h. However, the cell population of annexin V (+)/PI (+) in the Lf-GL treatment group was 0.28%, which was even lower level to 1.40% in the Control group"}, "rat aortic rings": {"tested_on": "rat aortic rings", "experiment": "Aorta ring assay (ex vivo)", "details": "VEGF-conditioned medium, GL equivalent 200 µM, 14 days", "experimental": "An aorta ring assay was conducted to confirm the anti-angiogenesis effect of Lf-GL ex vivo. A 48-well plate was coated with of Matrigel® (100 μL) and was incubated for 30 min or more in 37℃ incubators. In the meantime, thoracic aortas of 7-week-old male SD rats were excised. Then, the fat layer and outer membrane were removed, and rings approximately 1 mm in length were prepared. The prepared aortic rings were seeded on a coated Matrigel® of 48-well plate and were covered with Matrigel®. (100 μL) Subsequently, the aortic ring was treated with a control (with or without 25 ng mL^−1 of VEGF) or different concentrations of Lf-GL complex. Medium was changed once every two days. Fourteen days after treatment, optical images of sprouting microvessels were obtained using microscopy magnification (× 40 or × 100). Sprouting microvessel area was quantified using Image J and Sigma Plot.\nFig. S14. Significant inhibitory effect of Lf-GL in aortic ring angiogenesis. Optical images of vessel regression in aortic ring with Lf-GL treatment. Aortic ring assay was carried out in 48-well plate coated with Matrigel. VEGF-non treated control represents that aortic ring incubated with normal medium. VEGF-treated control represents that aortic ring incubated with 25 ng mL^-1 VEGF-conditioned medium. […]"}, "[1]": {"details": "mouse, in vivo, iv"}, "CD31": {"tested_on": "CD31", "experiment": "Immunofluorescence staining of CD31 in GBM tissue", "assay_type": "in vivo, Balb/c nude mice", "details": "GBM mice, daily i.v., 14 days (control MFI 14.7 ± 1.4)", "excerpt": "(§1) After two weeks, mice were sacrificed, and the brains were harvested and fixed with paraformaldehyde (4%). Then, tissue processing was automatically conducted using a Leica TP1020 semi-enclosed Benchtop Tissue Processor (Leica Biosystems, Wetzlar, Hesse, Germany), followed by embedding in paraffin blocks. Paraffin blocks were sliced into 5 μm thick slices using a Leica RM2145 Microtome (Leica Biosystems). Nissl staining was used to stain brain tissue slides with pre-warmed 0.1% Cresyl Violet Stain Solution (Abcam). TUNEL assays were conducted following the manufacturer’s instructions. For immunofluorescence staining; anti-HMGB1 antibody (Abcam), anti-Ki67 antibody (Abcam), anti-CD31 antibody (Abcam), and anti-VEGF antibody (Abcam) were used as primary antibodies, and goat anti-rabbit IgG-H&L Alexa Fluor 488 and goat anti-rabbit IgG H&L Alexa Fluor 647 were used as secondary antibodies, followed by DAPI mounting."}, "U87MG spheroid": {"tested_on": "U87MG spheroid", "experiment": "GBM spheroid growth inhibition", "assay_type": "cell-based, human", "details": "GL equivalent 50 µM, day 6 (control 294%)", "experimental": "Fig. S8. GBM spheroid growth inhibition of Lf-GL. To form U87MG spheroid, cells were seeded at density of 1X10^5 cells in concave mold (StemFIT 3D; MICROFIT, Korea). After spheroids were formed, they were transferred to 24-well plate coated with 2% agarose gel. The constructed spheroids were treated with conditioned medium at 2 days interval after a washing step with PBS. (a) Morphology of U87MG spheroid treated with Lf-GL of GL equivalent concentration of 50 µM on day 0, 2, 4 and 6, respectively. Scale bar: 200 µm (b) GBM spheroids time-related volume after treated with Lf-GL of GL equivalent concentration of 50 µM. Data were expressed as mean ± S.E.M (n=9). **P <0.01 versus Control."}, "[2]": {"tested_on": "orthotopic GBM (U87MG) mice model", "experiment": "TUNEL assay of GBM tissue", "assay_type": "in vivo, Balb/c nude mice", "details": "daily i.v., 14 days (control 28.5 ± 4.8)", "excerpt": "as §1"}, "[3]": {"tested_on": "orthotopic GBM (U87MG) mice model", "experiment": "Survival in orthotopic GBM mouse model", "assay_type": "in vivo, Balb/c nude mice", "details": "i.v. GL equivalent 50 mg kg^−1 (Lf 5 mg kg^−1)", "experimental": "To establish the orthotopic GBM mice model, GBM cells (U87MG, inoculation density: 1.0 × 10^6 cells per 10 μL) were stereotactically injected into the right striatum of Balb/c nude mice. Then, mice were randomly divided into four groups (n = 5): control, GL, Lf, and Lf-GL treated group. […] After four weeks, mice were sacrificed, and organs were harvested and fixed with 4% paraformaldehyde for further analysis."}, "[4]": {"experiment": "In vivo fluorescence tracer image (brain)", "parameters": "species or system Balb/c mice", "details": "FITC-tagged", "experimental": "For the fluorescence tracer images, Balb/c mice were administered either FITC-tagged GL or FITC-tagged Lf-GL at a GL equivalent concentration of 50 mg kg^−1 body weight via tail vein injection. After 1, 10, 30, and 60 min, the experimental mice were sacrificed, and the organs were extracted. The fluorescence signals of FITC-tagged GL or FITC-tagged Lf-GL in organs were imaged using an in vivo imaging system (FOBI, CELLGENTEK, South Korea). The exposure time was fixed to 200 s for analyzing fluorescent signals from tissues. The quantified fluorescence signal of the brain at each time point was measured in terms of intensity units (IU, Intensity Min^−1 Gain^−1).\nFig. S15. Fluorescence tracer images of intravenously injected GL and Lf-GL. Balb/c mice were administered either FITC-tagged GL or FITC-tagged Lf-GL at a GL equivalent concentration of 50 mg kg^-1 body weight via tail vein injection. The fluorescence signals of FITC-tagged GL or FITC-tagged Lf-GL in organs were imaged using an in vivo imaging system (FOBI, CELLGENTEK, South Korea). The exposure time was fixed to 200 sec for analyzing fluorescent signals from tissues. The quantified fluorescence signal of brain at each time point was measured with Intensity Unit (IU, Intensity Min^-1 Gain^-1)."}}}
{"molecule": "B1", "values": [{"measurement": "Annexin V (+)/PI (+) cell population", "setting": "U87MG", "value": 0.28, "unit": "%"}, {"measurement": "Decrease of sprouted area of the micro-vessel", "setting": "rat aortic rings", "value": "80.2 ± 4.5", "unit": "%"}, {"measurement": "Time after administration until cleared from / remaining in circulation", "setting": "[1]", "value": 720, "unit": "min"}, {"measurement": "T1/2, elimination half-life", "setting": "[1]; 50 mg/kg", "value": "5.3 ± 0.4", "unit": "min"}, {"measurement": "Decrease of MFI of CD31", "setting": "CD31", "value": "sevenfold"}, {"measurement": "Spheroid volume increase at day 6 compared to day 0", "setting": "U87MG spheroid", "value": 156, "unit": "%"}, {"measurement": "TUNEL MFI", "setting": "[2]", "value": "9.1 ± 0.9"}, {"measurement": "Mice survived up to 28 days", "setting": "[3]", "value": 87.5, "unit": "%"}, {"measurement": "Additional days of survival versus PBS control", "setting": "[3]; 28 days", "value": 5, "unit": "days"}, {"measurement": "Time up to which fluorescence signal was detected in the brain", "setting": "[4]; i.v. GL equivalent 50 mg kg^−1", "value": "up to 60 min"}, {"measurement": "Fluorescence intensity in the brain", "setting": "[4]; i.v. GL equivalent 50 mg kg^−1, 10 min after injection", "value": "15,234 I.U."}]}
